Results: PMC4736438, “Cation–π Interactions Contribute to Substrate Recognition in γ‐Butyrobetaine Hydroxylase Catalysis” (Chemistry (Weinheim an Der Bergstrasse, Germany), 2015)

T1: psBBOX (Pseudomonas sp. AK-1, UniProt P80193)
T1 construct: recombinant, purified on HisTrap and Superdex S200; metal-free buffer
T1 sequence (P80193 1-383): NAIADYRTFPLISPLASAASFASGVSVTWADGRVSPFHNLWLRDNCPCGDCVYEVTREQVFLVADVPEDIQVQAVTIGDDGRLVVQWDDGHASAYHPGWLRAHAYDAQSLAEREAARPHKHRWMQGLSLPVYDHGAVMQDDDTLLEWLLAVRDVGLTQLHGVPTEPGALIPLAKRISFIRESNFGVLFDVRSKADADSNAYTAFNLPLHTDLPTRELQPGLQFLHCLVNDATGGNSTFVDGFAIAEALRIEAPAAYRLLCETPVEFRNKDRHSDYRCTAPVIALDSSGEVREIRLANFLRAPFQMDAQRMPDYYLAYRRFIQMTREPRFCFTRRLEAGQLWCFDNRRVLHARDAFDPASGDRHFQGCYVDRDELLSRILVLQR

B1: psBBOX (Pseudomonas sp. AK-1) (protein)
chain: T1 sequence (P80193 1-383)
notes: recombinant, purified on HisTrap and Superdex S200; metal-free buffer

What was measured:
psBBOX = target: T1, psBBOX; test: 1H NMR (CPMG) protein titration; type: binding
[1] = substrate: C[N+](C)(C)CCCC(=O)[O-]; test: LC-MS hydroxylation kinetics; type: biochemical, Pseudomonas sp. AK-1; details: […] psBBOX, […] FeSO4, […] 2OG, […] ascorbate, Tris pH […] K
From the text: LC-MS hydroxylation kinetics on psBBOX

Molecule | Kd (psBBOX) [µM] | Km [1] [µM] | Vmax [1] [µM/min] | kcat [1] [s⁻¹]
C[N+](C)(C)CCCC(=O)[O-] [compound 1, γBB] | 5 |  |  | 
B1 |  | 1000 ± 210 | 169 | 7.02 ± 0.77
